In IntAct's records for PubMed 34039996:

B1: Plexin-A4 (Mus musculus), Q80UG2 (parent)
chain: MKAMPWNWTCLLSHLLVVGMGSSTLLPRQPPQLSQKPSFVTFRGEPAEGFNHLVVDERTGHIYLGAVNRIYKLSSDLKVLVTHQTGPDEDNPKCYPPRIVQTCNEPLASTNNVNKMLLIDYKENRLIACGSLYQGICKLLRLEDLFKLGEPFHKKEHYLSGVNESGSVFGVIVSYSNFDDKLFIATAVDGKPEYFPTISSRKLTKNSEADGMFAYVFHDEFVASMIKIPSDTFTVIPDFDIYYVYGFSSGNFVYFLTLQPEMVSPPGSTTKEQVYTSKLVRLCKEDTAFNSYVEVPIGCERNGVEYRLLQAAYLSKAGAVLGRTLGVRPDDDLLFTVFSKGQKRKMKSLDESALCIFILKQINDRIKDRLQSCYRGEGTLDLAWLKVKDIPCSSALLTIDDNFCGLDMNAPLGVSEMVRGIPVFTEDRDRMTSVIAYVYKNHSLAFVGTKSGKLKKIRVDGPKGNALQYETVQVVDSGPVLRDMAFSKDHEQLYIMSERQLTRVPVESCGQYRSCGECLGSGDPHCGWCVLHNTCTRKERCERSREPRRFASEMKQCVRLTVHPNNISVSQYNVLLVLETYNVPELSAGVNCTFEDLSEMDGLVIGNQIQCYSPAAKEVPRIITENGDHHVVQLQLKSKETGMTFASTSFVFYNCSVHNSCLSCVESPYRCHWCKYRHVCTHDPNTCSFQEGRVKLPEDCPQLLRVDKILVPVEVIKPITLKAKNLPQPQSGQRGYECILNIQGIEQRVPALRFNSSSVQCQNTSYSYEGMEINNLPVELTVVWNGHFNIDNPAQNKVYLYKCGAMRESCGLCLKADPDFECGWCQSPGQCTLRQHCPAHESRWLELSGANSKCTNPRITEIIPVTGPREGGTKVTIRGENLGLEFRDIASHVKVAGVECSPLVDGYIPAEQIVCEMGEAKPSQHAGFVEICVAVCRPEFMARSSQLYYFMTLTLADLKPNRGPMSGGTQVTITGTNLNAGSNVVVMFGSQPCLFHRRSPSYIICNTTSSEEVLDMKVTVQVDRARIRQDLVFQYVEDPTIVRIEPEWSIVSGNTPIAVWGTHLDLIQNPQIRAKHGGKEHINICEVLNATEMTCQAPALALGPDHQSDLTERPEEFGFILDNVQSLLILNKTNFTYYPNPVFEAFSPSGILELKPGTPIILKGKNLIPPVAGGNVKLNYTVLVGEKPCTVTVSDVQLLCESPNLIGRHKVMARVGGMEYSPGMVYIAPDSPLSLPAIVSIAVAGGLLIIFIVAVLIAYKRKSRESDLTLKRLQMQMDNLESRVALECKEAFAELQTDIHELTSDLDGAGIPFLDYRTYTMRVLFPGIEDHPVLRDLEVPGYRQERVEKGLKLFAQLINNKVFLLSFIRTLESQRSFSMRDRGNVASLIMTVLQSKLEYATDVLKQLLADLIDKNLESKNHPKLLLRRTESVAEKMLTNWFTFLLYKFLKECAGEPLFSLFCAIKQQMEKGPIDAITGEARYSLSEDKLIRQQIEYKTLVLSCVSPDNVNSPEVPVKILNCDTITQVKEKILDAIFKNVPCSHRPKAADMDLEWRQGSGARMILQDEDITTKIENDWKRLNTVAHYQVPDGSVVALVSKQVTAYNAVNNSTVSRTSASKYENMIRYTGSPDSLRSRTPMITPDLESGVKLWHLVKNHEHGDQKEGDRGSKMVSEIYLTRLLATKGTLQKFVDDLFETIFSTAHRGSALPLAIKYMFDFLDEQADKHGIHDPHVRHTWKSNCLPLRFWVNMIKNPQFVFDIHKNSITDACLSVVAQTFMDSCSTSEHRLGKDSPSNKLLYAKDIPSYKNWVERYYSDIGKMPAISDQDMNAYLAEQSRMHMNEFNTMSALSEIFSYVGKYSEEILGPLDHDDQCGKQKLAYKLEQVITLMSLDS
B2: Neuropilin-1 (Mus musculus), P97333 (parent)
chain: MERGLPLLCATLALALALAGAFRSDKCGGTIKIENPGYLTSPGYPHSYHPSEKCEWLIQAPEPYQRIMINFNPHFDLEDRDCKYDYVEVIDGENEGGRLWGKFCGKIAPSPVVSSGPFLFIKFVSDYETHGAGFSIRYEIFKRGPECSQNYTAPTGVIKSPGFPEKYPNSLECTYIIFAPKMSEIILEFESFDLEQDSNPPGGMFCRYDRLEIWDGFPEVGPHIGRYCGQKTPGRIRSSSGVLSMVFYTDSAIAKEGFSANYSVLQSSISEDFKCMEALGMESGEIHSDQITASSQYGTNWSVERSRLNYPENGWTPGEDSYKEWIQVDLGLLRFVTAVGTQGAISKETKKKYYVKTYRVDISSNGEDWISLKEGNKAIIFQGNTNPTDVVLGVFSKPLITRFVRIKPVSWETGISMRFEVYGCKITDYPCSGMLGMVSGLISDSQITASNQADRNWMPENIRLVTSRTGWALPPSPHPYTNEWLQVDLGDEKIVRGVIIQGGKHRENKVFMRKFKIAYSNNGSDWKTIMDDSKRKAKSFEGNNNYDTPELRTFSPLSTRFIRIYPERATHSGLGLRMELLGCEVEAPTAGPTTPNGNPVDECDDDQANCHSGTGDDFQLTGGTTVLATEKPTIIDSTIQSEFPTYGFNCEFGWGSHKTFCHWEHDSHAQLRWSVLTSKTGPIQDHTGDGNFIYSQADENQKGKVARLVSPVVYSQSSAHCMTFWYHMSGSHVGTLRVKLRYQKPEEYDQLVWMVVGHQGDHWKEGRVLLHKSLKLYQVIFEGEIGKGNLGGIAVDDISINNHISQEDCAKPTDLDKKNTEIKIDETGSTPGYEGEGEGDKNISRKPGNVLKTLDPILITIIAMSALGVLLGAVCGVVLYCACWHNGMSERNLSALENYNFELVDGVKLKKDKLNPQSNYSEA

Variants of: B1
Settings: with nrp1_mouse Nrp1, P97333

Row | Variant | effect of a mutation on the interaction
1 | K343E | with no effect

Variants of: B2
Settings: with plxa4_mouse Plxna4, Q80UG2

Row | Variant | effect of a mutation on the interaction
2 | H74A | with no effect
3 | S251E | with no effect
4 | E128R | with no effect
5 | A252E | with no effect
